Target: Ubiquitin (Homo sapiens, UniProt P0CG48)
Experiment: NMR titration

- Kd: 370 µM
B1: CIN85 SH3c 263-333 (protein)
chain: DSRTKSKDYCKVIFPYEAQNDDELTIKEGDIVTLINKDCIDVGWWEGELNGRRGVFPDNFVKLLPPDFEKE

From PMC9249894 (2022)
